Experimental data taken from patent US20110300138A1 (published 2011).

What was measured:
Assay in all cases: cell-based or functional assay
[1] = biological target: TSHR with Arg255 mutated to Asp expressed in CHO cells (human) (UniProt P16473)
[2] = biological target: TSHR with Asp232 mutated to Ala expressed in CHO cells (human) (UniProt P16473)
[3] = biological target: TSHR with Glu107 mutated to Ala expressed in CHO cells (human) (UniProt P16473)

Work on TSH (ligand) yielded a Cyclic AMP produced (pmol/mL), TSH 0.01 ng/mL, Experiment 1 [1] of 2.59 pmol/mL, a Cyclic AMP produced (pmol/mL), TSH 0.01 ng/mL, Experiment 2 [1] of 1.49 pmol/mL and a Cyclic AMP produced (pmol/mL), TSH 0.01 ng/mL, Experiment 3 [1] of 6.46 pmol/mL. The Cyclic AMP produced (pmol/mL), TSH 0.03 ng/mL, Experiment 1 [1] was 6.47 pmol/mL, the Cyclic AMP produced (pmol/mL), TSH 0.03 ng/mL, Experiment 2 [1] was 2.81 pmol/mL and the Cyclic AMP produced (pmol/mL), TSH 0.03 ng/mL, Experiment 3 [1] was 9.44 pmol/mL. It also gave a Cyclic AMP produced (pmol/mL), TSH 0.1 ng/mL, Experiment 1 [1] of 19.2 pmol/mL, a Cyclic AMP produced (pmol/mL), TSH 0.1 ng/mL, Experiment 2 [1] of 6.92 pmol/mL and a Cyclic AMP produced (pmol/mL), TSH 0.1 ng/mL, Experiment 3 [1] of 22.7 pmol/mL. The Cyclic AMP produced (pmol/mL), TSH 0.3 ng/mL, Experiment 1 [1] was 51.7 pmol/mL, the Cyclic AMP produced (pmol/mL), TSH 0.3 ng/mL, Experiment 2 (duplicate determination) [1] was 21.2 pmol/mL and the Cyclic AMP produced (pmol/mL), TSH 0.3 ng/mL, Experiment 3 [1] was 68.9 pmol/mL. The Cyclic AMP produced (pmol/mL), TSH 1 ng/mL, Experiment 1 [1] was 68.6 pmol/mL, the Cyclic AMP produced (pmol/mL), TSH 1 ng/mL, Experiment 2 [1] was 41.1 pmol/mL and the Cyclic AMP produced (pmol/mL), TSH 1 ng/mL, Experiment 3 [1] was 154 pmol/mL. For the same substance, the Cyclic AMP produced (pmol/mL), TSH 3 ng/mL, Experiment 1 [1] was 57.7 pmol/mL, the Cyclic AMP produced (pmol/mL), TSH 3 ng/mL, Experiment 2 [1] was 52.4 pmol/mL and the Cyclic AMP produced (pmol/mL), TSH 3 ng/mL, Experiment 3 [1] was 201 pmol/mL. It also gave a Mutated/Wild type (%) of cyclic AMP produced, TSH 0.01 ng/mL, Experiment 1 [1] of 59%, a Mutated/Wild type (%) of cyclic AMP produced, TSH 0.01 ng/mL, Experiment 2 [1] of 67% and a Mutated/Wild type (%) of cyclic AMP produced, TSH 0.01 ng/mL, Experiment 3 [1] of 124%. The Mutated/Wild type (%) of cyclic AMP produced, TSH 0.03 ng/mL, Experiment 1 [1] was 70%, the Mutated/Wild type (%) of cyclic AMP produced, TSH 0.03 ng/mL, Experiment 2 [1] was 78% and the Mutated/Wild type (%) of cyclic AMP produced, TSH 0.03 ng/mL, Experiment 3 [1] was 96%. For the same substance, the Mutated/Wild type (%) of cyclic AMP produced, TSH 0.1 ng/mL, Experiment 1 [1] was 71%, the Mutated/Wild type (%) of cyclic AMP produced, TSH 0.1 ng/mL, Experiment 2 [1] was 88% and the Mutated/Wild type (%) of cyclic AMP produced, TSH 0.1 ng/mL, Experiment 3 [1] was 91%. For the same substance, the Mutated/Wild type (%) of cyclic AMP produced, TSH 0.3 ng/mL, Experiment 1 [1] was 123%, the Mutated/Wild type (%) of cyclic AMP produced, TSH 0.3 ng/mL, Experiment 2 [1] was 78% and the Mutated/Wild type (%) of cyclic AMP produced, TSH 0.3 ng/mL, Experiment 3 [1] was 75%. It also gave a Mutated/Wild type (%) of cyclic AMP produced, TSH 1 ng/mL, Experiment 1 [1] of 114%, a Mutated/Wild type (%) of cyclic AMP produced, TSH 1 ng/mL, Experiment 2 [1] of 76% and a Mutated/Wild type (%) of cyclic AMP produced, TSH 1 ng/mL, Experiment 3 [1] of 80%. For the same substance, the Mutated/wild type (%) of cyclic AMP produced; TSH 3 ng/mL; Experiment 1 [1] was 94%, the Mutated/wild type (%) of cyclic AMP produced; TSH 3 ng/mL; Experiment 2 [1] was 90% and the Cyclic AMP produced, mutated TSHR, TSH 0.01 ng/mL (Experiment 1) [2] was 1.4 pmol/mL. It also gave a Cyclic AMP produced, mutated TSHR, TSH 0.01 ng/mL (Experiment 2) [2] of 2.58 pmol/mL, a Cyclic AMP produced, mutated TSHR, TSH 0.03 ng/mL (Experiment 1) [2] of 2.16 pmol/mL and a Cyclic AMP produced, mutated TSHR, TSH 0.03 ng/mL (Experiment 2) [2] of 4.1 pmol/mL. For the same substance, the Cyclic AMP produced, mutated TSHR, TSH 0.1 ng/mL (Experiment 1) [2] was 5.39 pmol/mL, the Cyclic AMP produced, mutated TSHR, TSH 0.1 ng/mL (Experiment 2) [2] was 9.44 pmol/mL and the Cyclic AMP produced, mutated TSHR, TSH 0.3 ng/mL (Experiment 1) [2] was 15.1 pmol/mL. It also gave a Cyclic AMP produced, mutated TSHR, TSH 0.3 ng/mL (Experiment 2) [2] of 23.5 pmol/mL, a Cyclic AMP produced, mutated TSHR, TSH 1 ng/mL (Experiment 1) [2] of 31.9 pmol/mL and a Cyclic AMP produced, mutated TSHR, TSH 1 ng/mL (Experiment 2) [2] of 44.4 pmol/mL. For the same substance, the Cyclic AMP produced, mutated TSHR, TSH 3 ng/mL (Experiment 1) [2] was 41 pmol/mL, the Cyclic AMP produced, mutated TSHR, TSH 3 ng/mL (Experiment 2) [2] was 62 pmol/mL and the Mutated/Wild type (%) of cyclic AMP produced, TSH 0.01 ng/mL, Experiment 1 [2] was 83%. It also gave a Mutated/Wild type (%) of cyclic AMP produced, TSH 0.01 ng/mL, Experiment 2 [2] of 62%, a Mutated/Wild type (%) of cyclic AMP produced, TSH 0.03 ng/mL, Experiment 1 [2] of 88% and a Mutated/Wild type (%) of cyclic AMP produced, TSH 0.03 ng/mL, Experiment 2 [2] of 83%. It also gave a Mutated/Wild type (%) of cyclic AMP produced, TSH 0.1 ng/mL, Experiment 1 [2] of 87%, a Mutated/Wild type (%) of cyclic AMP produced, TSH 0.1 ng/mL, Experiment 2 [2] of 84% and a Mutated/Wild type (%) of cyclic AMP produced, TSH 0.3 ng/mL, Experiment 1 [2] of 80%. It also gave a Mutated/Wild type (%) of cyclic AMP produced, TSH 0.3 ng/mL, Experiment 2 [2] of 75%, a Mutated/Wild type (%) of cyclic AMP produced, TSH 1 ng/mL, Experiment 1 [2] of 70% and a Mutated/Wild type (%) of cyclic AMP produced, TSH 1 ng/mL, Experiment 2 [2] of 60%. The Mutated/wild type (%) of cyclic AMP produced; TSH 3 ng/mL; Experiment 1 [2] was 66%, the Mutated/wild type (%) of cyclic AMP produced; TSH 3 ng/mL; Experiment 2 [2] was 64% and the % inhibition of TSH stimulation; TSH (2) [3] was 12%. For the same substance, the Cyclic AMP produced, mutated TSHR, TSH 0.01 ng/mL [3] was 8.2 pmol/mL, the Cyclic AMP produced, mutated TSHR, TSH 0.03 ng/mL [3] was 8.92 pmol/mL and the Cyclic AMP produced, mutated TSHR, TSH 0.1 ng/mL [3] was 8.24 pmol/mL. It also gave a Cyclic AMP produced, mutated TSHR, TSH 0.3 ng/mL [3] of 15.7 pmol/mL, a Cyclic AMP produced, mutated TSHR, TSH 1 ng/mL [3] of 30.2 pmol/mL and a Cyclic AMP produced, mutated TSHR, TSH 3 ng/mL [3] of 43.9 pmol/mL. The Cyclic AMP produced; TSH 3 ng/mL [3] was 83.7 pmol/mL, the Cyclic AMP produced; TSH (2) [3] was 73.2 pmol/mL and the Mutated/Wild type (%) of cyclic AMP produced, TSH 0.01 ng/mL [3] was 582%. For the same substance, the Mutated/Wild type (%) of cyclic AMP produced, TSH 0.03 ng/mL [3] was 448%.
